Measured values as given in article PMC7943604.

Tests used:
[1] = target: COPY^o2 (Atto532-stathmin-Atto647N); assay: stopped-flow fluorescence (sensitized emission of the FRET sensor); COPY^o2 or phosphorylated COPY^o2 constant at 200 nM, tubulin titrated; dissociation at 200 nM COPY^o2 and 4 µM tubulin by displacement with 60 µM unlabeled stathmin; 25 °C; 80 mM PIPES pH 6.8, 75 mM KCl, 2 mM MgCl2, 20 mM β-mercaptoethanol, 60 µM GTP
phosphorylated COPY^o2 = assay: as above

tubulin (αβ-heterodimer) (from UniProt P02550 1-451; P02554 1-445) (complex)
KD, high affinity site [1]: 0.03 µM
KD, low-affinity site [1]: 2 µM
koff, high affinity site [1]: 0.048 s⁻¹
koff, low-affinity site [1]: 1.86 s⁻¹
kon, high affinity site [1]: 1.6e+06 M⁻¹ s⁻¹
kon, low-affinity site [1]: 900000 M⁻¹ s⁻¹
stoichiometry N [1]: 2
KD, high affinity site (phosphorylated COPY^o2): 610 µM
KD, low-affinity site (phosphorylated COPY^o2): 12 µM
koff, high affinity site (phosphorylated COPY^o2): 8 s⁻¹
koff, low-affinity site (phosphorylated COPY^o2): 2.3 s⁻¹
kon, high affinity site (phosphorylated COPY^o2): 12800 M⁻¹ s⁻¹
kon, low-affinity site (phosphorylated COPY^o2): 170000 M⁻¹ s⁻¹
